# From FireProtDB (doi:10.1016/s0167-4838(99)00132-6)
# Conditions: Oryctolagus cuniculus; pH 6; Thermal; DSC; KH2PO4-KOH 10 mM; reversible: no
# Chain of Glyceraldehyde-3-phosphate dehydrogenase wild type, P46406 (P46406 whole entry): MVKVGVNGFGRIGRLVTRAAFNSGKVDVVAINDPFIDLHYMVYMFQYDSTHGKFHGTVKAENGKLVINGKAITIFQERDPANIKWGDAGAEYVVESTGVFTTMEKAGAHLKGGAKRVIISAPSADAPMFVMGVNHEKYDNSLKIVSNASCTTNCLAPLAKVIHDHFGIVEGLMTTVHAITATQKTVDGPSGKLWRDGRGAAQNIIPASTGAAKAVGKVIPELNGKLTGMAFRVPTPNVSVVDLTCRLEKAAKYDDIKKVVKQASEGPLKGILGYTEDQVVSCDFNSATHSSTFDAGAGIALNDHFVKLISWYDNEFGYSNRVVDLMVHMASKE
substance,measurement,value
"Glyceraldehyde-3-phosphate dehydrogenase wild type, P46406",Tm,68.9 °C
same,unfolding enthalpy (calorimetric),693 kcal/mol
